Data: PMC10746540

B1: PYR1*^MANDI, pBD two-hybrid fusion [not stated] / HAB1*, pACT two-hybrid fusion [not stated] (parent)
chain 1: MPSELTPEERSELKNSIAEFHTYQLDPGSCSSLHAQRIHAPPELVWSIVRRFDKPQTHRHFIKSCSVEQNFEMRVGCTRDIIVISGLPANTSTERLDILDDERRVTGASIIGGEHRLTNYKGVTTVHRFEKENRIWTVVLESYVVDMPEGNSEDDTRIVVDDVVKLNLQKLATVAEAMARNSGDGSGSQVT
chain 2: MEEMTPAVAMTLSLAANTMCESSPVEITQLKNVTDAADLLSDSENQSFCNGGTECTMEDVSELEEVGEQDLLKTLSDTRSGSSNVFDEDDVLSVVEDNSAVISEGLLVVDAGSELSLSNTAMEIDNGRVLATAIIVGESSIEQVPTAEVLIAGVNQDTNTSEVVIRLPDENSNHLVKGRSVYELDCIPLWGTVSIQGNASEMEAAFAVSPHFLKLPIKMLMGDHEGMSPSLTHLTGHFFGVYDGHGGHKVADYCRDRLHFALAEEIERIKDELCKRNTGEGRQVQWDKVFTSCFLTVDGEIEGKIGRAVVGSSDKVLEAVADETVGSTAVVALVCSSHIVVSNCGDSRAVLFRGKEAMPLSVDHKPDREDEYARIENAGGKVIQWQGARVFGRLAMSRSIGDRYLKPYVIPEPEVTFMPRSREDECLILASDGLWDVMNNQEVCEIARRRILMWHKKNGAPPLAERGKGIDPACQAAADYLSMLALQKGSKDNISIIVIDLKAQAKFKTRT

Variants of: B1
Assay: β-gal-based Y2H assay
Conditions: with HAB1*, ligand: azinphos

screen value | Variant
10 µM | chain 1 V83W R116S

Same assay, conditions: with HAB1*, ligand: azinphos-ethyl

screen value | Variant
0.01 µM | chain 1 V83W R116S
0.25 µM | chain 1 V83W I110Y R116S
0.01 µM | chain 1 V83W I110Y R116S V164Y

Same assay, conditions: with HAB1*, ligand: chlorofenvinphos

screen value | Variant
12.5 µM | chain 1 G122Q

Same assay, conditions: with HAB1*, ligand: diazinon

screen value | Variant
100 µM | chain 1 A108V

Same assay, conditions: with HAB1*, ligand: disulfoton

screen value | Variant
100 µM | chain 1 M147V

Same assay, conditions: with HAB1*, ligand: malathion

screen value | Variant
100 µM | chain 1 V83A

Same assay, conditions: with HAB1*, ligand: pirimiphos

screen value | Variant
25 µM | chain 1 S92M
